B3: Spc34 (natural protein, budding yeast, UniProt P36131 1-295, looked up)
chain: MGESLDRCIDDINRAVDSMSTLYFKPPGIFHNAILQGASNKASIRKDITRLIKDCNHDEAYLLFKVNPEKQSVSRRDGKEGVFDYVIKRDTDMKRNRRLGRPGEKPIIHVPKEVYLNKDRLDLNNKRRRTATTSGGGLNGFIFDTDLIGSSVISNSSSGTFKALSAVFKDDPQIQRLLYALENGSVLMEEESNNQRRKTIFVEDFPTDLILKVMAEVTDLWPLTEFKQDYDQLYHNYEQLSSKLRFIKKEVLLQDDRLKTMSQYHPSSSHDVAKIIRKEKDEIRRLEMEIANLQE
notes: Spc34, subunit of the budding yeast Dam1 complex; Subunit inside the recombinant 10-subunit complex; source: expressed and purified as part of the Dam1 complex as described [3]
B4: Ask1 (natural protein, budding yeast, UniProt P35734 1-292, looked up)
chain: MDSASKEETLEKLDQEITVNLQKIDSNLSFCFHKITQDIIPHVATYSEICERIMDSTEWLGTMFQETGLVNLQANAAAPVGNAPVKSLVSNNVGIFPTSAEEASRQSQTDNGPNEADSAVHVNRDVHSMFNNDSIDDFHTANITSTGQILKLPDSSDEDTGSEAVPSREQTDLTGEGHGGADDEQDESTIQRQSRKRKISLLLQQQYGSSSSMVPSPIVPNKMRKQLAHEEHINNDGDNDDENSNNIESSPLKQGHHHPKGQADDNNEGPDEEESTKEVPKPGTIIHFSTNR
notes: Ask1, subunit of the budding yeast Dam1 complex; Subunit inside the recombinant 10-subunit complex; source: expressed and purified as part of the Dam1 complex as described [3]
B5: Duo1 (natural protein, budding yeast, UniProt P53168 1-247, looked up)
chain: MSEQSQLDDSTIDKLIPQIFNEMRSNLNNTTNKFPKSTGGGASDNISANSNSIRSFNSITTQSLLKESESLDKITAMIKNVTAALKNNLPVYVNQVHEVCKSTNSILDSWINIHSQAGYIHKLMSDQTYLKLINDRLHNENVNTNDEDGSTLHNVIALKKKEILDLRQKLENRKGEKDAAPAKPPNQGLNPRYGVQSGRRPVPSAGISNNGRVRKTHVPASKRPSGIPRVTNRWTKPTASSSRKMFR
notes: Duo1, subunit of the budding yeast Dam1 complex; Subunit inside the recombinant 10-subunit complex; also called Duo1 subunit; source: expressed and purified as part of the Dam1 complex as described [3]
B6: Spc19 (natural protein, budding yeast, UniProt Q03954 1-165, looked up)
chain: MTDALEQSVLALEGTVSVLKDSVESLKCANEPSTNLASTMLQTKRVFRLVPEYDVERSKLDLIEEVEPLVRTLGDKLRKSMGRMQRELDTLQQTYELNDLRLKKNISMDDDDALNSPDMGQEYEGRDADDVVMMASSTNEELEELKKLKEKKKQLENKLEILKQK
notes: Spc19, subunit of the budding yeast Dam1 complex; Subunit inside the recombinant 10-subunit complex; also called Sp19; source: expressed and purified as part of the Dam1 complex as described [3]

In data set [1] the target is T1, Dam1 (budding yeast, UniProt P53267 1-343).
T1 construct: Dam1, subunit of the budding yeast Dam1 complex; Subunit inside the recombinant 10-subunit complex; also called Dam1 subunit; source: expressed and purified as part of the Dam1 complex as described [3]
T1 sequence (looked up): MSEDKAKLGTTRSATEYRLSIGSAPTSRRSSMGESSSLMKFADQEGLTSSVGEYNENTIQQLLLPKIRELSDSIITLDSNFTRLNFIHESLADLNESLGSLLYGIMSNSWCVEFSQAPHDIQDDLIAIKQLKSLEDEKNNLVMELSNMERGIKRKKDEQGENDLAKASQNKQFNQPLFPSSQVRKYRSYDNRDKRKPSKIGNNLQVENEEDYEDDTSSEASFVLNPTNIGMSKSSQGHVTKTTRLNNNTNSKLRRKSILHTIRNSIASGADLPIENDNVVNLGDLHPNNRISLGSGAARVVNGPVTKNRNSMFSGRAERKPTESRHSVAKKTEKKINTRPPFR
Kind of data set: cross-linking; BS3, size-exclusion fraction of the Dam1 complex Duo1Δ184 eluting as the full complex, mass spectrometry. Particulars: both partners purified. Background: In gel filtration, larger molecules generally elute earlier.

Data set [2] deals with the molecule itself. Kind of data set: cross-linking; BS3, Dam1 complex at 0.05 mg/ml in solution; cross-linked species (approx. 110, 220 and 440 kDa) separated by SDS-PAGE, bands cut out, in-gel trypsin digestion, mass spectrometry.
In data set [3] the target is T1, Dam1. Kind of data set: cross-linking; BS3, Dam1 complex at 0.3 mg/ml in BRB80, room temperature 40-60 min, digested in solution, mass spectrometry; some links may be between oligomerizing complexes. Conditions: both partners purified.
The target in data set [4] is B3. The description is as above. Particulars: both partners purified.
Data set [5] has as its target B4. The data set is described as above. Particulars: both partners purified.
In data set [6] the target is B5. The data set is described as above. Particulars: both partners purified.
The target of data set [7] is B3. As to the kind of experiment: cross-linking; BS3, Dam1 complex at 0.05 mg/ml in solution; cross-linked species (approx. 110, 220 and 440 kDa) separated by SDS-PAGE, bands cut out, in-gel trypsin digestion, mass spectrometry. Particulars: both partners purified.
Data set [8] deals with B4. As to the kind of experiment: cross-linking; EDC with Sulfo-NHS, Dam1 complex assembled on taxol-stabilized microtubules in BRB80, pellet washed, room temperature 1 h, digested in solution, mass spectrometry. Particulars: both partners purified.
For data set [9], the target named is B6. Kind of data set: cross-linking; BS3, Dam1 complex at 0.05 mg/ml in solution; cross-linked species (approx. 110, 220 and 440 kDa) separated by SDS-PAGE, bands cut out, in-gel trypsin digestion, mass spectrometry. Particulars: both partners purified.

Broadly, the stoichiometry N is the number of molecules, sites or subunits per partner or assembly.

B1: Duo1Δ184 (domain or fragment, budding yeast, UniProt P53168 1-183, looked up)
chain: MSEQSQLDDSTIDKLIPQIFNEMRSNLNNTTNKFPKSTGGGASDNISANSNSIRSFNSITTQSLLKESESLDKITAMIKNVTAALKNNLPVYVNQVHEVCKSTNSILDSWINIHSQAGYIHKLMSDQTYLKLINDRLHNENVNTNDEDGSTLHNVIALKKKEILDLRQKLENRKGEKDAAPAK
notes: Duo1, budding yeast; stop codon inserted at position 184; Subunit inside the Dam1 complex Duo1Δ184; also called Duo1 lacking its C terminus (Δ184); source: purified as part of the Dam1 complex Duo1Δ184 (Ni–NTA, Superose 6 size-exclusion chromatography)
Take B1: the binding result in [1] is recorded as “binds”.

B2: Dam1 complex (complex, budding yeast)
chain 1: MSEDKAKLGTTRSATEYRLSIGSAPTSRRSSMGESSSLMKFADQEGLTSSVGEYNENTIQQLLLPKIRELSDSIITLDSNFTRLNFIHESLADLNESLGSLLYGIMSNSWCVEFSQAPHDIQDDLIAIKQLKSLEDEKNNLVMELSNMERGIKRKKDEQGENDLAKASQNKQFNQPLFPSSQVRKYRSYDNRDKRKPSKIGNNLQVENEEDYEDDTSSEASFVLNPTNIGMSKSSQGHVTKTTRLNNNTNSKLRRKSILHTIRNSIASGADLPIENDNVVNLGDLHPNNRISLGSGAARVVNGPVTKNRNSMFSGRAERKPTESRHSVAKKTEKKINTRPPFR
chain 2: MSEQSQLDDSTIDKLIPQIFNEMRSNLNNTTNKFPKSTGGGASDNISANSNSIRSFNSITTQSLLKESESLDKITAMIKNVTAALKNNLPVYVNQVHEVCKSTNSILDSWINIHSQAGYIHKLMSDQTYLKLINDRLHNENVNTNDEDGSTLHNVIALKKKEILDLRQKLENRKGEKDAAPAKPPNQGLNPRYGVQSGRRPVPSAGISNNGRVRKTHVPASKRPSGIPRVTNRWTKPTASSSRKMFR
chain 3: MMASTSNDEEKLISTTDKYFIEQRNIVLQEINETMNSILNGLNGLNISLESSIAVGREFQSVSDLWKTLYDGLESLSDEAPIDEQPTLSQSKTK
chain 4: MDSIDEQIAIKRKELQSLQKITSLTDGLKIQLTELNEQIKEMGMNADSVAQLMNNWDSIINNISQASLGLLQYAEGDYEIGPWKDSKKKESEQSNETGLEAQENDKNDEDNDEDEDLVPLPETMVRIRVDGNE
chain 5: MEHNLSPLQQEVLDKYKQLSLDLKALDETIKELNYSQHRQQHSQQETVSPDEILQEMRDIEVKIGLVGTLLKGSVYSLILQRKQEQESLGSNSK
chain 6: MENPHEQVQANILSRIIGNVKRLNESVAILNQELVTINNRNKNLEIMGAICDNYHSSVQFNLEATNNKKPPL
chain 7: MNANKQRQYNQLAHELRELQTNLQETTKQLDIMSKQCNENLVGQLGKVHGSWLIGSYIYYMEQMLGKTQ
chain 8: MDSASKEETLEKLDQEITVNLQKIDSNLSFCFHKITQDIIPHVATYSEICERIMDSTEWLGTMFQETGLVNLQANAAAPVGNAPVKSLVSNNVGIFPTSAEEASRQSQTDNGPNEADSAVHVNRDVHSMFNNDSIDDFHTANITSTGQILKLPDSSDEDTGSEAVPSREQTDLTGEGHGGADDEQDESTIQRQSRKRKISLLLQQQYGSSSSMVPSPIVPNKMRKQLAHEEHINNDGDNDDENSNNIESSPLKQGHHHPKGQADDNNEGPDEEESTKEVPKPGTIIHFSTNR
chain 9: MTDALEQSVLALEGTVSVLKDSVESLKCANEPSTNLASTMLQTKRVFRLVPEYDVERSKLDLIEEVEPLVRTLGDKLRKSMGRMQRELDTLQQTYELNDLRLKKNISMDDDDALNSPDMGQEYEGRDADDVVMMASSTNEELEELKKLKEKKKQLENKLEILKQK
chain 10: MGESLDRCIDDINRAVDSMSTLYFKPPGIFHNAILQGASNKASIRKDITRLIKDCNHDEAYLLFKVNPEKQSVSRRDGKEGVFDYVIKRDTDMKRNRRLGRPGEKPIIHVPKEVYLNKDRLDLNNKRRRTATTSGGGLNGFIFDTDLIGSSVISNSSSGTFKALSAVFKDDPQIQRLLYALENGSVLMEEESNNQRRKTIFVEDFPTDLILKVMAEVTDLWPLTEFKQDYDQLYHNYEQLSSKLRFIKKEVLLQDDRLKTMSQYHPSSSHDVAKIIRKEKDEIRRLEMEIANLQE
notes: Dam1, budding yeast; Duo1, budding yeast; Dad1, budding yeast; Dad2, budding yeast; Dad3, budding yeast; Dad4, budding yeast; Hsk3, budding yeast; Ask1, budding yeast; Spc19, budding yeast; Spc34, budding yeast; 10-subunit complex; also called heterodecameric Dam1 complex; wild-type Dam1 complex; source: expressed and purified as described [3]; copies: + + + + + + + + +
As for B2, the “stoichiometry N” value in data set [2] was 2.
As for B3, the binding result in data set [3] is reported as “binds”.
Consider B4, for which the binding result in [3] and in [4] was “binds” in each case.
Consider B5, for which the binding result in data set [3], in data set [4] and in [5] was “binds” throughout.
B6: the binding result in data set [3], in data set [6], in data set [5] and in data set [7] was “binds” in each case.

B7: Dad2 (natural protein, budding yeast, UniProt P36162 1-133, looked up)
chain: MDSIDEQIAIKRKELQSLQKITSLTDGLKIQLTELNEQIKEMGMNADSVAQLMNNWDSIINNISQASLGLLQYAEGDYEIGPWKDSKKKESEQSNETGLEAQENDKNDEDNDEDEDLVPLPETMVRIRVDGNE
notes: Dad2, subunit of the budding yeast Dam1 complex; Subunit inside the recombinant 10-subunit complex; source: expressed and purified as part of the Dam1 complex as described [3]
As for B7, the binding result in data set [3], in [8] and in data set [9] was “binds” each time.

For the origin of these results see paper PMC4821239, “Molecular architecture of the Dam1 complex–microtubule interaction” (Open Biology, 2016).
